According to patent publication EP4039268A1 (IMBA-Institut für Molekulare Biotechnologie GmbH, dated 2022):

Tests used:
[1] = molecular target: T1, human recombinant soluble ACE2 (human, UniProt Q9BYF1 18-740); assay: ELISA
T1 construct: also called hrsACE2

[2] = molecular target: T2, full-length trimeric SARS-CoV-2 Spike protein (Spike-H6) (SARS-CoV-2, N-glycosylated (22 N-glycosylation sites)); assay: ELISA screen
T2 construct: also called trimeric Spike; full-length Spike-H6

[3] = molecular target: T3, monomeric SARS-CoV-2 receptor binding domain (RBD-H6) (SARS-CoV-2, UniProt P0DTC2 319-541); assay: ELISA screen
T3 construct: Made in HEK293-6E cells; also called RBD Spike; monomeric RBD

[4] = molecular target: T1, human recombinant soluble ACE2; assay: ELISA screen

T1 sequence (Q9BYF1 18-740 limits assumed): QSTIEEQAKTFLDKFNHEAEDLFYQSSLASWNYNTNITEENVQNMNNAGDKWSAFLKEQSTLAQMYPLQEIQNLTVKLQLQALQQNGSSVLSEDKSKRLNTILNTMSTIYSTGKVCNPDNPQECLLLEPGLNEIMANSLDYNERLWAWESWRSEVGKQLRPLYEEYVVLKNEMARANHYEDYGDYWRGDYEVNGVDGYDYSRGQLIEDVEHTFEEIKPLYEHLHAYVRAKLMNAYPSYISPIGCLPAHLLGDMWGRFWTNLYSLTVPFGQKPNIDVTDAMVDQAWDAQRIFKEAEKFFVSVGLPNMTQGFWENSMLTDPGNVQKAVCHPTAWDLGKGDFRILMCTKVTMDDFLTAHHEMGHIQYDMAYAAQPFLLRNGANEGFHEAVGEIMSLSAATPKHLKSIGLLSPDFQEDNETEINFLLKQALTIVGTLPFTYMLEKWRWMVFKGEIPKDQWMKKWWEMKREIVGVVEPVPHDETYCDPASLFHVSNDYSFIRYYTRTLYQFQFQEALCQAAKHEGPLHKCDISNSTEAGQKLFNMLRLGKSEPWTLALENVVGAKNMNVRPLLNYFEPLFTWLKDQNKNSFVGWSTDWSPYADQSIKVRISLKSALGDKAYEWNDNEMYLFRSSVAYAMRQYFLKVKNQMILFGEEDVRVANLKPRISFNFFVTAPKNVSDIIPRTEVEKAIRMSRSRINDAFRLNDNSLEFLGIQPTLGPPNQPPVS

B1: Cd209d CRD-mouse IgG2a-Fc fusion protein (Fc fusion)
chain: FFNGSCYFFSKSQRNWHNSTTACQELGAQLVIIETDEEQTFLQQTSKARGPTWMGLSDMHNEATWHWVDGSPLSPSFTRYWNRGEPNNVGDEDCAEFSGDGWNDLSCDKLLFWICKGGGSGGGSGGGS
- binding result [1]: no binding (tested: 10 µg/ml)
- Mean normalized OD [2]: 0.01 OD
- Mean normalized OD [3]: 0.019 OD
- Mean normalized OD [4]: 0.039 OD

B2: Mrc2_2 CRD-mouse IgG2a-Fc fusion protein (Fc fusion)
chain: FQGHCYRLQAEKRSWQESKRACLRGGGDLLSIHSMAELEFITKQIKQEVEELWIGLNDLKLQMNFEWSDGSLVSFTHWHPFEPNNFRDSLEDCVTIWGPEGRWNDSPCNQSLPSICKGGGSGGGSGGGS
- binding result [1]: no binding (tested: 10 µg/ml)
- Mean normalized OD [2]: 0.017 OD
- Mean normalized OD [3]: 0.038 OD
- Mean normalized OD [4]: 0.009 OD

B3: Lgals8_1 CRD-mouse IgG2a-Fc fusion protein (Fc fusion)
chain: YVGTITEQLKPGSLIVIRGHVPKDSERFQVDFQLGNSLKPRADVAFHFNPRFKRSSCIVCNTLTQEKWGWEEITYDMPFRKEKSFEIVFMVLKNKFQVAVNGRHVLLYAHRISPEQIDTVGIYGKVNIHSIGFRGGGSGGGSGGGS
- binding result [1]: no binding (tested: 10 µg/ml)
- Mean normalized OD [2]: 0.019 OD
- Mean normalized OD [3]: 0.031 OD
- Mean normalized OD [4]: 0.062 OD

B4: Lgals2 CRD-mouse IgG2a-Fc fusion protein (Fc fusion)
chain: KFEVKDLNMKPGMSLKIKGKIHNDVDRFLINLGQGKETLNLHFNPRFDESTIVCNTSEGGRWGQEQRENHMCFSPGSEVKITITFQDKDFKVTLPDGHQLTFPNRLGHNQLHYLSMGGLQISSFKLEGGGSGGGSGGGS
- binding result [1]: no binding (tested: 10 µg/ml)
- Mean normalized OD [2]: 0.035 OD
- Mean normalized OD [3]: 0.018 OD
- Mean normalized OD [4]: 0.031 OD

B5: Pla2r1_4 CRD-mouse IgG2a-Fc fusion protein (Fc fusion)
chain: GLASCFKVFHSEKVLMKRSWREAEAFCEEFGAHLASFAHIEEENFVNELLHSKFNWTQERQFWIGFNRRNPLNAGSWAWSDGSPVVSSFLDNAYFEEDAKNCAVYKANKTLLPSNCASKHEWICRGGGSGGGSGGGS
- binding result [1]: no binding (tested: 10 µg/ml)
- Mean normalized OD [2]: 0.063 OD
- Mean normalized OD [3]: 0.053 OD
- Mean normalized OD [4]: 0.088 OD

B6: Mrc2_3 CRD-mouse IgG2a-Fc fusion protein (Fc fusion)
chain: HSPSCYWLGEDQVIYSDARRLCTDHGSQLVTITNRFEQAFVSSLIYNWEGEYFWTALQDLNSTGSFRWLSGDEVIYTHWNRDQPGYRRGGCVALATGSAMGLWEVKNCTSFRARYICGGGSGGGSGGGS
- binding result [1]: no binding (tested: 10 µg/ml)
- Mean normalized OD [2]: 0.003 OD
- Mean normalized OD [3]: 0.003 OD
- Mean normalized OD [4]: 0.01 OD

B7: Mrc2_7 CRD-mouse IgG2a-Fc fusion protein (Fc fusion)
chain: YLNHTFRLLQKPLRWKDALLLCESRNASLAHVPDPYTQAFLTQAARGLQTPLWIGLASEEGSRRYSWLSEEPLNYVSWQDEEPQHSGGCAYVDVDGTWRTTSCDTKLQGAVCGGGSGGGSGGGS
- binding result [1]: no binding (tested: 10 µg/ml)
- Mean normalized OD [2]: 0.002 OD
- Mean normalized OD [3]: 0.002 OD
- Mean normalized OD [4]: 0 OD

B8: Mrc1_2 CRD-mouse IgG2a-Fc fusion protein (Fc fusion)
chain: YAGHCYRIHREEKKIQKYALQACRKEGGDLASIHSIEEFDFIFSQLGYEPNDELWIGLNDIKIQMYFEWSDGTPVTFTKWLPGEPSHENNRQEDCVVMKGKDGYWADRACEQPLGYICKGGGSGGGSGGGS
- binding result [1]: no binding (tested: 10 µg/ml)
- Mean normalized OD [2]: -0.028 OD
- Mean normalized OD [3]: 0.106 OD
- Mean normalized OD [4]: 0 OD

B9: Lgals4_2 CRD-mouse IgG2a-Fc fusion protein (Fc fusion)
chain: YVGALQGGLTVRRTIIIKGYVLPTARNFVINFKVGSSGDIALHLNPRIGDSVVRNSFMNGSWGAEERKVAYNPFGPGQFFDLSIRCGMDRFKVFANGQHLFDFSHRFQAFQMVDTLEINGDITLSYVQIGGGSGGGSGGGS
- binding result [1]: no binding (tested: 10 µg/ml)
- Mean normalized OD [2]: 0.034 OD
- Mean normalized OD [3]: 0.014 OD
- Mean normalized OD [4]: 0.031 OD

B10: Sele CRD-mouse IgG2a-Fc fusion protein (Fc fusion)
chain: WYYNASSELMTYDEASAYCQRDYTHLVAIQNKEEINYLNSNLKHSPSYYWIGIRKVNNVWIWVGTGKPLTEEAQNWAPGEPNNKQRNEDCVEIYIQRTKDSGMWNDERCNKKKLALCYGGGSGGGSGGGS
- binding result [1]: no binding (tested: 10 µg/ml)
- Mean normalized OD [2]: 0.001 OD
- Mean normalized OD [3]: 0 OD
- Mean normalized OD [4]: 0 OD

B11: Pla2r1_5 CRD-mouse IgG2a-Fc fusion protein (Fc fusion)
chain: YQNAEYLFHTHPAEWATFEFVCGWLRSDFLTIYSAQEQEFIHSKIKGLTKYGVKWWIGLEEGGARDQIQWSNGSPVIFQNWDKGREERVDSQRKRCVFISSITGLWGTENCSVPLPSICKGGGSGGGSGGGS
- binding result [1]: no binding (tested: 10 µg/ml)
- Mean normalized OD [2]: 0.029 OD
- Mean normalized OD [3]: 0.036 OD
- Mean normalized OD [4]: 0.065 OD

B12: Pla2r1_7 CRD-mouse IgG2a-Fc fusion protein (Fc fusion)
chain: YGNRTYKIIRGNMTWYAAGKSCRMHRAELASIPDAFHQAFLTVLLSRLGHTHWIGLSTTDNGQTFDWSDGTKSPFTYWKDEESAFLGDCAFADTNGRWHSTACESFLQGAICGGGSGGGSGGGS
- binding result [1]: no binding (tested: 10 µg/ml)
- Mean normalized OD [2]: 0.002 OD
- Mean normalized OD [3]: 0 OD
- Mean normalized OD [4]: 0 OD

B13: Ly75_6 CRD-mouse IgG2a-Fc fusion protein (Fc fusion)
chain: FQNKCFLKVNSGPVTFSQASGICHSYGGTLPSVLSRGEQDFIISLLPEMEASLWIGLRWTAYERINRWTDNRELTYSNFHPLLVGRRLSIPTNFFDDESHFHCALILNLKKSPLTGTWNFTSCSERHSLSLCQKGGGSGGGSGGGS
- binding result [1]: no binding (tested: 10 µg/ml)
- Mean normalized OD [2]: 0.007 OD
- Mean normalized OD [3]: 0.003 OD
- Mean normalized OD [4]: 0.005 OD

B14: Lgalslb CRD-mouse IgG2a-Fc fusion protein (Fc fusion)
chain: YFRGHIKGGMRPGKKVLVMGIVDHNPKSFAISLTCGDSEDPPADVAIELKVVFTNQQVFRNSCISGESDEENLAFPYFPFVPDQPFRMEIFCQQPCFRVLVDGHHLFDFYHRIQTLSAIDSIKISGDLQIGGGSGGGSGGGS
- binding result [1]: no binding (tested: 10 µg/ml)
- Mean normalized OD [2]: 0.026 OD
- Mean normalized OD [3]: 0.01 OD
- Mean normalized OD [4]: 0.047 OD

B15: Lgals12_2 CRD-mouse IgG2a-Fc fusion protein (Fc fusion)
chain: CSRALPRGLWPGQVIVVRGLVLKEPKDFTLSLKDGTTHVPVTLRASFTDRTLAWVSSWGRKKLISAPFLFHPQRFFEVLLLCQEGGLKLALNGQGLGATSLDQKALEQLRELRISGNVHLYCVHCGGGSGGGSGGGS
- binding result [1]: no binding (tested: 10 µg/ml)
- Mean normalized OD [2]: 0.025 OD
- Mean normalized OD [3]: 0.009 OD
- Mean normalized OD [4]: 0.031 OD

B16: Lgals8_2 CRD-mouse IgG2a-Fc fusion protein (Fc fusion)
chain: FEARLNASMGPGRTVVIKGEVNTNARSFNVDLVAGKTRDIALHLNPRLNVKAFVRNSFLQDAWGEEERNITCFPFSSGMYFEMIIYCDVREFKVAINGVHSLEYKHRFKDLSSIDTLSVDGDIRLLDVRSWGGGSGGGSGGGS
- binding result [1]: no binding (tested: 10 µg/ml)
- Mean normalized OD [2]: 0.037 OD
- Mean normalized OD [3]: 0.012 OD
- Mean normalized OD [4]: 0.074 OD

B17: Mbl2 CRD-mouse IgG2a-Fc fusion protein (Fc fusion)
chain: KVGKKYFVSSVKKMSLDRVKALCSEFQGSVATPRNAEENSAIQKVAKDIAYLGITDVRVEGSFEDLTGNRVRYTNWNDGEPNNTGDGEDCVVILGNGKWNDVPCSDSFLAICEGGGSGGGSGGGS
- binding result [1]: no binding (tested: 10 µg/ml)
- Mean normalized OD [2]: 0.14 OD
- Mean normalized OD [3]: 0.001 OD
- Mean normalized OD [4]: 0 OD

B18: Cd209a CRD-mouse IgG2a-Fc fusion protein (Fc fusion)
chain: FQGSCYFFSVAQKSWNDSATACHNVGAQLVVIKSDEEQNFLQQTSKKRGYTWMGLIDMSKESTWYWVDGSPLTLSFMKYWSKGEPNNLGEEDCAEFRDDGWNDTKCTNKKFWICKGGGSGGGSGGGS
- binding result [1]: no binding (tested: 10 µg/ml)
- Mean normalized OD [2]: 0.014 OD
- Mean normalized OD [3]: 0.028 OD
- Mean normalized OD [4]: 0.049 OD

B19: Ly75_8 CRD-mouse IgG2a-Fc fusion protein (Fc fusion)
chain: FQNSCYNFMITNNRHKTVTPEEVQSTCEKLHSKAHSLSIRNEEENTFVVEQLLYFNYIASWVMLGITYENNSLMWFDKTALSYTHWRTGRPTVKNGKFLAGLSTDGFWDIQSFNVIEETLHFYQGGGSGGGSGGGS
- binding result [1]: no binding (tested: 10 µg/ml)
- Mean normalized OD [2]: 0.011 OD
- Mean normalized OD [3]: 0.007 OD
- Mean normalized OD [4]: 0.054 OD

B20: Selp CRD-mouse IgG2a-Fc fusion protein (Fc fusion)
chain: WTYNYSTKAYSWNNSRVFCRRHFTDLVAIQNKNEIAHLNDVIPFFNSYYWIGIRKINNKWTWVGTNKTLTEEAENWADNEPNNKKNNQDCVEIYIKSNSAPGKWNDEPCFKRKRALCGGGSGGGSGGGS
- binding result [1]: no binding (tested: 10 µg/ml)
- Mean normalized OD [2]: 0.014 OD
- Mean normalized OD [3]: 0.007 OD
- Mean normalized OD [4]: 0 OD

B21: Pkd1l3 CRD-mouse IgG2a-Fc fusion protein (Fc fusion)
chain: GGNSCYQLNRLFCDFQEADNYCHAQRGRLAHTWNPKLRGFLKSFLNEETVWWVRGNLTLPGSHPGINQTGGDDVLRNQKPGECPSVVTHSNAVFSRWNLCIEKHHFICQGGGSGGGSGGGS
- binding result [1]: no binding (tested: 10 µg/ml)
- Mean normalized OD [2]: 0.046 OD
- Mean normalized OD [3]: -0.001 OD
- Mean normalized OD [4]: 0.017 OD

B22: Mrc1_1 CRD-mouse IgG2a-Fc fusion protein (Fc fusion)
chain: LTGILYQINSKSALTWHQARASCKQQNADLLSVTEIHEQMYLTGLTSSLSSGLWIGLNSLSVRSGWQWAGGSPFRYLNWLPGSPSSEPGKSCVSLNPGKNAKWENLECVQKLGYICKGGGSGGGSGGGS
- binding result [1]: no binding (tested: 10 µg/ml)
- Mean normalized OD [2]: 0.109 OD
- Mean normalized OD [3]: 0.076 OD
- Mean normalized OD [4]: 0.161 OD
